B1: Gamma-crystallin S, residues 96 to 176; numbered along this chain, P22914 (parent)
chain: IQIFEKGDFSGQMYETTEDCPSIMEQFHMREIHSCKVLEGVWIFYELPNYRGRQYLLDKKEYRKPIDWGAASPAVQSFRRI

Variants of: B1
Test: abundance fitness (aPCA) (normalised: wild type 0, dead -1); higher = more abundant; growth selection in yeast, the domain comes from the species named
Conditions: Homo sapiens

Abundance fitness of substitutions, site by site:
V41: Q 0.055 | R 0.047 | T 0.096 | D -0.01 | Y -0.162 | C -0.112 | L 0.023
R53: C -0.064 | E 0.036 | I -0.163 | S -0.084 | H -0.036 | V -0.018 | A -0.039 | N -0.168 | Y -0.129 | T -0.018 | G -0.039 | W -0.257 | F -0.055 | Q 0.073 | P -0.169 | K 0.005 | L -0.059 | D 0.048
L57: V 0.045 | G 0.026 | N -0.526 | M 0.17 | T -0.078 | P -0.517 | K -0.414 | C -0.273 | S 0.171 | R -0.288 | Q -0.491 | A -0.039 | F -0.311
Y62: A -0.099 | F 0.16 | C -0.162
W42: Q -0.906 | A -0.157 | P -1.04 | D -1.06 | T -0.709 | E -0.363 | F -0.051 | G -1.02 | V -0.042 | M -0.231 | R -0.986 | K -0.787 | N -0.445 | Y 0.046 | L -0.241 | H -0.461 | S -0.901 | C -0.156
G40: Y -0.137
G52: D -0.788 | M -0.912 | K -0.438 | Y -0.95 | Q -1 | V -1.05 | T -0.95 | W -1.01 | P -0.89 | R -0.766 | F -0.246 | E -0.949 | S -0.457 | C -0.631 | L -0.805 | A -0.741
I43: W -0.032 | Y 0.047 | K -0.123 | V -0.013 | H -0.162 | E 0.117 | N 0.007 | F 0.008 | R 0.016 | Q 0.056 | P -1.1 | G 0.028 | M 0.074 | S 0.015
N49: K -0.04 | P -0.591 | L -0.063 | C -0.078 | F -0.009 | T -0.167 | V -0.198 | H -0.004 | A -0.018 | R -0.07 | Y -0.044 | M -0.001 | E 0.021 | G 0.011 | W 0.004 | D 0.004
L47: T -0.285 | S -0.056 | W -0.078 | H 0.065 | Q -0.113 | F 0.046 | Y 0.019 | I -0.436 | V -0.667 | D -0.093 | A -0.047 | G -0.051 | R 0.011 | E -0.004 | M 0.07 | N -0.203 | K 0 | P -0.909 | C -0.022
K59: E -0.31 | G -0.133 | F -0.107 | Y -0.077 | A 0.012 | I 0.026 | H 0.323 | V 0.119 | D -0.153 | Q -0.022 | C -0.104 | P -0.229 | M -0.136 | W -0.084 | T 0.089
E61: N 0.035 | W 0.086 | S -0.358 | L -0.135 | M -0.028 | Q -0.05 | V 0.084 | H -0.205
P48: Y -0.23 | R -0.067 | D -0.038 | F -0.388 | S -0.1 | N -0.096 | E -0.068 | G -0.147 | V -0.104 | M -0.193 | K 0.006 | C -0.129 | A -0.027 | L -0.32 | W -0.712 | H -0.236 | Q -0.011 | T 0.002 | I -0.23

Source: the Human Domainome abundance scans (Beltran et al. 2025)
